18 molecules from patent publication US20250270319A1 (Alector, published 2025) can be followed below.

B1: anti-CD33 antibody 6C7H10 (antibody, IgG1, V domains shown)
VH: EVQLVESGGGLVQPGGSLRLSCAASGFTFSEYAMNWVRQAPGKGLEWVGEIRLKSNNYVTNYAASVKGRFTISRDDSKNSVYLQMNSLKTEDTGVYYCTRAGYYVPFAYWGQGTLVTVSS
VL: QLVLTQSPSASASLGASVKLTCTLSSQHSTYTIEWYQQQPEKGPRYLMELKKEGSHSTGDGIPDRFSGSSSGAERYLTISSLQSEDEADYYCGVGDTIKEQFVYVFGGGTKLTVL
notes: VH/VL only; also called 6C7H10 IgG1
B2: 6C7H10 IgG2 (antibody)
chain 1: EVQLVESGGGLVQPGGSLRLSCAASGFTFSEYAMNWVRQAPGKGLEWVGEIRLKSNNYVTNYAASVKGRFTISRDDSKNSVYLQMNSLKTEDTGVYYCTRAGYYVPFAYWGQGTLVTVSSASTKGPSVFPLAPCSRSTSESTAALGCLVKDYFPEPVTVSWNSGALTSGVHTFPAVLQSSGLYSLSSVVTVPSSNFGTQTYTCNVDHKPSNTKVDKTVERKCCVECPPCPAPPVAGPSVFLFPPKPKDTLMISRTPEVTCVVVDVSHEDPEVQFNWYVDGVEVHNAKTKPREEQFNSTFRVVSVLTVVHQDWLNGKEYKCKVSNKGLPAPIEKTISKTKGQPREPQVYTLPPSREEMTKNQVSLTCLVKGFYPSDIAVEWESNGQPENNYKTTPPMLDSDGSFFLYSKLTVDKSRWQQGNVFSCSVMHEALHNHYTQKSLSLSPGK
chain 2: B1 VL
B3: 6C7H10 IgG1 SELF (antibody)
chain 1: not shown
chain 2: B1 VL
B4: 6C7H10 IgG1 LALAPS (antibody)
chain 1: not shown
chain 2: B1 VL
B5: 6C7H8 IgG1 LALAPS (antibody, V domains shown)
VH: B1 VH with A24G, E31N, A33C, G49A
VL: B1 VL
B6: 6C7H54 IgG1 PS (antibody)
chain 1: not shown
chain 2: B1 VL with V3M, E41G, D96H
B7: 6C7H54 IgG2 (antibody)
heavy: B2 chain 1 with A24G, E31N, A33E, G49A
light: QLMLTQSPSASASLGASVKLTCTLSSQHSTYTIEWYQQQPGKGPRYLMELKKEGSHSTGDGIPDRFSGSSSGAERYLTISSLQSEDEADYYCGVGHTIKEQFVYVFGGGTKLTVLGQPKAAPSVTLFPPSSEELQANKATLVCLISDFYPGAVTVAWKADSSPVKAGVETTTPSKQSNNKYAASSYLSLTPEQWKSHRSYSCQVTHEGSTVEKTVAPTECS
B8: anti-CD33 antibody 6C7H47 (antibody, V domains shown)
VH: B1 VH with A24G, E31N, A33E, G49A
VL: B1 VL with V3M, E41G, D96H, V105E
notes: VH/VL only
B9: anti-CD33 antibody 6C7H45 (antibody, V domains shown)
VH: B1 VH with N35L
VL: B1 VL with V3M, E41G, D96H, V105E
notes: VH/VL only
B10: anti-CD33 antibody 6C7H50 (antibody, V domains shown)
VH: B1 VH with A33D, N35L
VL: B1 VL with V3M, E41G, D96H
notes: VH/VL only
B11: anti-CD33 antibody 6C7H48 (antibody, V domains shown)
VH: B1 VH with A24G, E31N, A33E, G49A
VL: B1 VL with L2P, V3M, E41G, D96L
notes: VH/VL only
B12: anti-CD33 antibody 6C7H53 (antibody, V domains shown)
VH: B1 VH with A24G, E31N, A33E, G49A
VL: B1 VL with L2P, D96V
notes: VH/VL only
B13: anti-CD33 antibody 6C7H44 (antibody, V domains shown)
VH: B1 VH with A33D, N35L
VL: B1 VL with L2P, V3M, E41G, D96L
notes: VH/VL only
B14: anti-CD33 antibody 6C7H42 (antibody, V domains shown)
VH: B1 VH with A33D, N35L, S77T
VL: B1 VL with L2P, V3M, E41G, D96L
notes: VH/VL only
B15: anti-CD33 antibody 6C7H43 (antibody, V domains shown)
VH: B1 VH with A33D, N35L
VL: B1 VL with V3M, E41G, D96H, V105E
notes: VH/VL only
B16: anti-CD33 antibody 6C7H51 (antibody, V domains shown)
VH: B1 VH with N35L
VL: B1 VL with L2P, D96V
notes: VH/VL only
B17: anti-CD33 antibody 6C7H46 (antibody, V domains shown)
VH: B1 VH with N35L
VL: B1 VL with L2P, V3M, E41G, D96L
notes: VH/VL only
B18: anti-CD33 antibody 6C7H52 (antibody, V domains shown)
VH: B1 VH with N35L
VL: B1 VL with V3M, E41G, D96H
notes: VH/VL only

Where a chain is given by its changes, count along the chain named.

T2 sequence (chain, as listed by the source limits assumed): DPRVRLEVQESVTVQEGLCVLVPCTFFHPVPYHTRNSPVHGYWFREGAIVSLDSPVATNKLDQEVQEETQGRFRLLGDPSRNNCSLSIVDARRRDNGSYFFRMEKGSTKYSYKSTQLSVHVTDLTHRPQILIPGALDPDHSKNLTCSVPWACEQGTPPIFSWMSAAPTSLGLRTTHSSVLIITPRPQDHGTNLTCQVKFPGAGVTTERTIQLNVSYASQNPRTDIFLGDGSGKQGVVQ
T1 sequence (P20138 18-364): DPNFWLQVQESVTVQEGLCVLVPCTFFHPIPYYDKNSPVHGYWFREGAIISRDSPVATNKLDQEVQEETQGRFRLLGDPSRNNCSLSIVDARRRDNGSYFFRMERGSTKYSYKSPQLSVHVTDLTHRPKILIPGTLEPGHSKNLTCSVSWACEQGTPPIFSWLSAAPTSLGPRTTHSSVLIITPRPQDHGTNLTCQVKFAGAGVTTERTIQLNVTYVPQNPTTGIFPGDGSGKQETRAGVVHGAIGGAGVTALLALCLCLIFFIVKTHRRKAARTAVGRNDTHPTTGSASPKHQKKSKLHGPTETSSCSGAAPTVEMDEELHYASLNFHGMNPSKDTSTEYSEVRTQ

The first assay addresses T1, human CD33 on primary human dendritic cells (human, UniProt P20138 18-364). In words: cell-based or functional assay.
On to B1, for which the “Maximal downregulation (% CD33 remaining)” value came to 21.2 % CD33 remaining and the “Receptor downregulation, (pM, EC50)” value was found to be 778 pM.

B2: the “Fold change in potency from IgG1” value stood at 1.01 fold; the “Maximal downregulation (% CD33 remaining)” value was 24.2 % CD33 remaining; the “Receptor downregulation, (pM, EC50)” value stood at 772 pM.

With B3, the “Fold change in potency from IgG1” value stood at 25.8 fold; the “Maximal downregulation (% CD33 remaining)” value worked out at 19.6 % CD33 remaining; the “Receptor downregulation, (pM, EC50)” value came out at 30.1 pM.

For the molecule B4, the “Fold change in potency from IgG1” value amounted to 0.58 fold; the “Maximal downregulation (% CD33 remaining)” value came to 62.3 % CD33 remaining; the “Receptor downregulation, (pM, EC50)” value is 1350 pM.

As to B5, the “Fold change in potency from IgG1” value is 0.93 fold; the “Maximal downregulation (% CD33 remaining)” value came out at 67.4 % CD33 remaining; the “Receptor downregulation, (pM, EC50)” value came out at 83.7 pM.

Consider B6, for which the “Fold change in potency from IgG1” value turned out to be 2.4 fold; the “Maximal downregulation (% CD33 remaining)” value was 23.9 % CD33 remaining; the “Receptor downregulation, (pM, EC50)” value came out at 12.6 pM.

As for B7, the “Fold change in potency from IgG1” value turned out to be 1.2 fold; the “Maximal downregulation (% CD33 remaining)” value was determined as 14.3 % CD33 remaining; the “Receptor downregulation, (pM, EC50)” value came out at 25.3 pM.

A further assay has as its target T2, recombinant cynomolgus CD33 protein (NovoProtein) (cynomolgus).
T2 construct: Bought protein; also called cyno CD33
As to the kind of experiment: ELISA, plate coated with recombinant CD33.
Take B8: the 50% effective concentration (EC50) stood at 0.42 nM, the “Relative maximal binding (cyno/human)” value turned out to be 0.43 and the “Relative potency (human/cyno)” value amounted to 0.52.

Consider B9, for which the “Relative maximal binding (cyno/human)” value was found to be 0.31.

Regarding B10, the “Relative maximal binding (cyno/human)” value is 0.21.

B11: the EC50 is 1.19 nM, the “Relative maximal binding (cyno/human)” value was determined as 0.53 and the “Relative potency (human/cyno)” value is 0.14.

On to B12, for which the EC50 worked out at 25.6 nM, the “Relative maximal binding (cyno/human)” value came out at 0.39 and the “Relative potency (human/cyno)” value turned out to be 0.01.

In the case of B13, the “Relative maximal binding (cyno/human)” value came to 0.09.

B14: the “Relative maximal binding (cyno/human)” value came out at 0.08.

As for B15, the “Relative maximal binding (cyno/human)” value was 0.11.

As for B16, the “Relative maximal binding (cyno/human)” value is 0.08.

With B17, the EC50 came out at 16.8 nM, the “Relative maximal binding (cyno/human)” value was 0.23 and the “Relative potency (human/cyno)” value was 0.01.

As for B18, the EC50 came to 1.7 nM, the “Relative maximal binding (cyno/human)” value was 0.47 and the “Relative potency (human/cyno)” value worked out at 0.14.

The next assay deals with T3, recombinant human CD33 protein (Sino Biologicals) (human, UniProt P20138 18-259).
T3 construct: Bought protein; also called recombinant CD33
T3 sequence (P20138 18-259 limits assumed): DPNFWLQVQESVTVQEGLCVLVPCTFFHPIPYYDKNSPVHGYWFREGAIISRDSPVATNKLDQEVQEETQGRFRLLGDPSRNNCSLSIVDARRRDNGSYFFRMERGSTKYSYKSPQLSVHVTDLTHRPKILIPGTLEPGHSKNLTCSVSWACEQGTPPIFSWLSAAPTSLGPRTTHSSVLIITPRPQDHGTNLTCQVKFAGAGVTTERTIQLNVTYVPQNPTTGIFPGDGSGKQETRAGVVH
In words: ELISA, plate coated with recombinant CD33.
With B8, the EC50 came to 0.22 nM.

For B9, the EC50 turned out to be 0.15 nM.

As for B10, the EC50 amounted to 0.22 nM.

For the molecule B11, the 50% effective concentration (EC50) came to 0.17 nM.

For the molecule B12, the concentration for a half-maximal effect (EC50) is 0.18 nM.

In the case of B13, the EC50 is 0.18 nM.

In the case of B14, the half-maximal effective concentration (EC50) worked out at 0.2 nM.

Turning to B15, the concentration giving a half-maximal response (EC50) stood at 0.17 nM.

In the case of B16, the concentration for a half-maximal effect (EC50) turned out to be 0.19 nM.

B17: the EC50 is 0.19 nM.

With B18, the EC50 was found to be 0.23 nM.

The target of another assay is T1, human CD33 on primary human dendritic …. In words: cell-based or functional assay. This is another data set of the same source.
As to B1, the “Fold increase in potency compared to 6C7H5” value (from here on “Fold increase in potency”) was 0.1 fold; the “Maximal reduction in CD33 (% remaining)” value turned out to be 21.2 % remaining; the “Receptor downregulation, (EC50) (pM)” value was determined as 778 pM.

The next assay shares this target. In words: cell-based or functional assay. The source holds these as a separate data set.
Turning to B8, the “Fold increase in potency” value amounted to 0.7 fold and the “Receptor downregulation, (EC50) (pM)” value worked out at 59 pM.

B9: the “Fold increase in potency” value worked out at 1 fold and the “Receptor downregulation, (EC50) (pM)” value turned out to be 44.5 pM.

Take B10: the “Fold increase in potency” value is 0.7 fold and the “Receptor downregulation, (EC50) (pM)” value was 57.8 pM.

Take B11: the “Fold increase in potency” value turned out to be 0.8 fold and the “Receptor downregulation, (EC50) (pM)” value worked out at 56.3 pM.

Regarding B12, the “Fold increase in potency” value was determined as 1.2 fold and the “Receptor downregulation, (EC50) (pM)” value came to 35.4 pM.

With B13, the “Fold increase in potency” value came to 0.9 fold and the “Receptor downregulation, (EC50) (pM)” value was determined as 45.7 pM.

For B14, the “Fold increase in potency” value stood at 1.1 fold and the “Receptor downregulation, (EC50) (pM)” value stood at 39.4 pM.

As to B15, the “Fold increase in potency” value amounted to 0.9 fold and the “Receptor downregulation, (EC50) (pM)” value was 49.8 pM.

On to B16, for which the “Fold increase in potency” value was determined as 1 fold and the “Receptor downregulation, (EC50) (pM)” value turned out to be 42.4 pM.

Turning to B17, the “Fold increase in potency” value turned out to be 0.7 fold and the “Receptor downregulation, (EC50) (pM)” value came out at 61.7 pM.

On to B18, for which the “Fold increase in potency” value came to 0.9 fold and the “Receptor downregulation, (EC50) (pM)” value was found to be 47.7 pM.

Another assay addresses T3, recombinant human CD33 protein (Sino …). As to the kind of experiment: BLI (ForteBio), antibody on anti-human Fc sensor, CD33 10 nM. As for the experimental part: Affinity parameters of the antibody variants for human CD33 were measured by BioLayer Interferometry in a ForteBio assay according to standard techniques (Estep et al. (2013) MAbs 5(2): 270-8) and were compared to those of the parental antibody (antibody 6C7H8) and the parental humanized antibody (antibody 6C71H5). Briefly, the antibodies were captured on anti-human Fc Biosensors (Pall ForteBio). Recombinant human CD33 (10 nM, Sino Biologicals) was then bound to the captured anti-CD33 surface (200 s association time, 1200 s dissociation time). Local fitting was used to extract association and dissociation rate constants (kₐ and kd, respectively) for each antibody. Apparent affinity constants (KD) were calculated from the ratio kd/kₐ.
B1: the Kd is 0.561 nM, the koff was 0.000823 s⁻¹ and the kon is 1.47e+06 M⁻¹ s⁻¹.
